Results as given in US20250368742A1 (D2M BIOTHERAPEUTICS, published 2025).
Where two headings read alike, the source gives them in different places.

T1: MICB005-ECD-HISAvi (human, UniProt Q29980 24-309)
T1 construct: Two sources under one name in the two kinetic assays; also called MICB005 polypeptide
T1 sequence: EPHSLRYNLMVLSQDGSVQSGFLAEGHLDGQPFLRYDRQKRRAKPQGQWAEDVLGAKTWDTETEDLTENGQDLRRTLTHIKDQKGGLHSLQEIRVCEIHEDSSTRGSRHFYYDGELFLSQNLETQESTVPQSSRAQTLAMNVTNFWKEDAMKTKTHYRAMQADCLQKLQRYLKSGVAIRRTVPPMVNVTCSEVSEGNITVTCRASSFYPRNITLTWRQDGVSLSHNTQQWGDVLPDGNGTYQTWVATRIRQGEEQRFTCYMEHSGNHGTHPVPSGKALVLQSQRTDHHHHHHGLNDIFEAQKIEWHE

T2: MICA008-ECD-HISAvi (human)
T2 construct: Two sources under one name in the two kinetic assays; also called MICA008 polypeptide
T2 chain: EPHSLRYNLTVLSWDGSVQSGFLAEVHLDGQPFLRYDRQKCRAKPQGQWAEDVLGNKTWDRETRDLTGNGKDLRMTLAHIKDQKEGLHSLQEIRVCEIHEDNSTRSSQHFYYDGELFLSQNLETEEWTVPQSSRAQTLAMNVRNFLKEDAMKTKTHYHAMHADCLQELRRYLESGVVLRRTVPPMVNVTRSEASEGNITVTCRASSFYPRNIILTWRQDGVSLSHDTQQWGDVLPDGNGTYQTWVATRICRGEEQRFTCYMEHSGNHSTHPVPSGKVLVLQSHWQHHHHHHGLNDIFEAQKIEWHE

T3: MICA002-ECD-HISAvi (human, UniProt Q29983 24-308)
T3 construct: also called MICA002 polypeptide
T3 chain: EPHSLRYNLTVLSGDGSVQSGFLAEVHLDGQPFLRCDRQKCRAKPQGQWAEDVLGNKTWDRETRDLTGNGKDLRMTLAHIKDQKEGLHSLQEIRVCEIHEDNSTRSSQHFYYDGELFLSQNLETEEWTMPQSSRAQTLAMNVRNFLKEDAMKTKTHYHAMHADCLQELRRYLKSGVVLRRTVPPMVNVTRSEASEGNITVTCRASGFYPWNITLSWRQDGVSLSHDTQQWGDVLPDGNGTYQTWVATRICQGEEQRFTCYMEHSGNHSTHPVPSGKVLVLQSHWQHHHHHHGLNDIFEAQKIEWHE

T4: MICA004-ECD-HISAvi (human)
T4 construct: also called MICA004 polypeptide
T4 chain: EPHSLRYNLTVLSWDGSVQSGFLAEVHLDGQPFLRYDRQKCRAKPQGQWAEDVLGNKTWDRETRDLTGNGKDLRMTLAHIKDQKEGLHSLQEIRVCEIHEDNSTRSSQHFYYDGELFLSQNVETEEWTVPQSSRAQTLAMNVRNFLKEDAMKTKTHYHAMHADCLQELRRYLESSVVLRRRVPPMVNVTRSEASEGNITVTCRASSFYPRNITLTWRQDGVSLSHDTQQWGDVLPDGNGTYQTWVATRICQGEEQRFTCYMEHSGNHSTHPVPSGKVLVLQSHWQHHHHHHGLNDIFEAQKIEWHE


Assays:
[1] = molecular target: T5, human MICA008 on cells (human); assay: flow cytometry, CHO-MICA008 cells
T5 construct: whole, on cells; also called CHO-MICA008; C1R-MICA008
T5 sequence (Q29983 whole entry): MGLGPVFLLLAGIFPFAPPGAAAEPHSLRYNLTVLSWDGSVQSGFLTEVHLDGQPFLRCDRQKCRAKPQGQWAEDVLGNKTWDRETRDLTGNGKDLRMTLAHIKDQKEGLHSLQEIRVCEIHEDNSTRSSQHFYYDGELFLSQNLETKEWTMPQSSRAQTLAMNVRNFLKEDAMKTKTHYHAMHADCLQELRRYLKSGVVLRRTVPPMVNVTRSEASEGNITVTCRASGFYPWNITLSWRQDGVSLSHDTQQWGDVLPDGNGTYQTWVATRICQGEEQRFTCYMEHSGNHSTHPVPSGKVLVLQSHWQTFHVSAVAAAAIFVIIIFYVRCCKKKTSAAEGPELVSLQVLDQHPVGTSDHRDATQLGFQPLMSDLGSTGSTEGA
Method: (§1) IgG1 is an isotype control (IgG). The antibody binding signals of APC (gMFI) to MICA/B were measured by flow cytometry.
(§2) After an incubation time of 30 minutes, the plate was centrifuged and cells were washed with PBS three times. […] After mixing for 30 minutes at room temperature, cells were washed with PBS twice. Fluorescent signal was detected and quantified by flow cytometry (Attune™ CytPix™, ThermoFisher) within the population of live cells (viability dye PI negative).

[2] = molecular target: T6, human MICB005 on cells (human); assay: flow cytometry, CHO-MICB005 cells
T6 construct: whole, on cells; also called CHO-MICB005; C1R-MICB005

[3] = molecular target: T5, human MICA008 on cells; assay: flow cytometry, HeLa cells (MICA008)
Method: as §1, §2

[4] = molecular target: T1, MICB005-ECD-HISAvi; assay: SPR (Carterra); antibody captured by anti-human Fc, monomeric ECD antigen injected
Method: (§3) The dissociation kinetics were monitored for approximately 10 minutes. The chip surface was regenerated between binding cycles with 10 mM glycine HCl, pH 1.7. Binding kinetics were analyzed using software supplied by the manufacturer.

[5] = molecular target: T2, MICA008-ECD-HISAvi; assay: as above
Method: as §3

[6] = molecular target: T3, MICA002-ECD-HISAvi; assay: as above
Method: as §3

[7] = molecular target: T4, MICA004-ECD-HISAvi; assay: as above
Method: as §3

[8] = molecular target: T6, human MICB005 on cells; assay: flow cytometry, CHO-MICB005 cells; remark: listed apart in the source
Method: as §1, §2

[9] = molecular target: T1, MICB005-ECD-HISAvi; assay: BLI (GatorPrime); antibody on anti-hIgG Fc probe, monomeric antigen in solution;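 note: binding kinetics of anti-MICA/B antibodies measured by biolayer interferometry, with dissociation followed for about 10 min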
Method: (§4) The binding kinetics of the antibodies were also measured using the GatorPrime BLI (Biolayer Interferometry) system (Gator Bio, USA). Specifically, the anti-MICA/B antibodies were loaded with HFC (Anti-hIgG Fc, Gator Bio, Cat #: 160003). […] The dissociation kinetics were monitored for approximately 10 minutes. The probes were regenerated between binding cycles with Regeneration Buffer (Gator Bio, Cat #: 120012). Binding kinetics were analyzed using software supplied by the manufacturer.

[10] = molecular target: T2, MICA008-ECD-HISAvi; assay: as above
Method: as §4

[11] = molecular target: T7, Cynomolgus monkey MICA (cynoMICA) (Cynomolgus monkey (Macaca fascicularis)); assay: as above
T7 construct: also called cyno monkey MICA; cyno MIC protein
Method: as §4

[12] = molecular target: T3, MICA002-ECD-HISAvi; assay: as above
Method: as §4

[13] = molecular target: T8, MICA009Avi (human); assay: as above
T8 construct: extracellular domain
T8 sequence (Q29983 24-307): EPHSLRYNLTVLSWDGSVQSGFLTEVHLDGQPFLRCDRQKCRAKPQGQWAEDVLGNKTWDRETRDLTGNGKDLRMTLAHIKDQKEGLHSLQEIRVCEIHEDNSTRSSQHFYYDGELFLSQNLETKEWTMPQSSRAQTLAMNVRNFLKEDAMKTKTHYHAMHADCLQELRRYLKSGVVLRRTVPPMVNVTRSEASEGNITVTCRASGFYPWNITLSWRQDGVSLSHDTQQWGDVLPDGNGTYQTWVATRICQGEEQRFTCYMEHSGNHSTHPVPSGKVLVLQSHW
Method: as §4

[14] = molecular target: T4, MICA004-ECD-HISAvi; assay: as above
Method: as §4

[15] = molecular target: T1, MICB005-ECD-HISAvi; assay: SPR (Carterra); antibody captured by anti-human Fc, monomeric ECD antigen injected; remark: listed apart in the source
Method: as §3

[16] = molecular target: T2, MICA008-ECD-HISAvi; assay: as above
Method: as §3

[17] = molecular target: T3, MICA002-ECD-HISAvi; assay: as above
Method: as §3

[18] = molecular target: T4, MICA004-ECD-HISAvi; assay: as above
Method: as §3

| EC50 [1] | EC50 [2] | EC50 [3] | Kd [4] | Kd [5] | Kd [6] | Kd [7] | EC50 [8] | Kd [9] | Kd [10] | Kd [11] | Kd [12] | Kd [13] | Kd [14] | Kd [15] | Kd [16] | Kd [17] | Kd [18] | Binder |
| --- | --- | --- | --- | --- | --- | --- | --- | --- | --- | --- | --- | --- | --- | --- | --- | --- | --- | --- |
| 0.028 µg/mL | 0.198 µg/mL | 0.034 µg/mL | 0.96 nM | 0.269 nM | 0.032 nM | 0.52 nM | 0.152 µg/mL | 0.195 nM | 0.026 nM | 5.2 nM | 0.0757 nM | 0.11 nM | 0.101 nM | 2.3 nM | 1.79 nM | 0.47 nM | 1.35 nM | 1D5 (antibody, human IgG1, kappa, V domains shown, also called ID5) VH: EIQLQQSGPELVKPGASVKVSCKASGYAFTSQNIYWVKQSHGKSLEWIGYIEPYNVVPMYNPKFKGKATLTVDKSSSSAYIHLNSLTSEDSAIYYCARSGSSNFDYWGQGTTLTVSS VL: EIILTQSPTTMAASPGEKITITCSASSSISSHYLHWYQQKSGFSPKLLIYRTSNLASGVPARFSGSGSGTSYSLTIGTMEAEDVATYYCQQGSSLPLTFGAGTKVEIKR |
| 0.119 µg/mL | 1.08 µg/mL | 0.115 µg/mL | 5.47 nM | 2 nM | 1.65 nM | 2.78 nM | 0.572 µg/mL | 2.19 nM | 0.295 nM | 14.3 nM | 1.35 nM | 0.936 nM | 1.08 nM | 9.29 nM | 2.82 nM | 5.67 nM | 4.05 nM | 3F9 (antibody, human IgG1, kappa, V domains shown, also called benchmark 3F9) VH: QVQLVESGGGLVKPGGSLRLSCAASGFTFSNYAMSWIRQAPGKGLEWVSYISPGGDYIYYADSVKGRFTISRDNAKNSLYLQMNSLRAEDTAVYYCTTDRRHYGSYAMDYWGQGTLVTVSS VL: DIVMTQSPLSLPVTPGEPASISCRSSKSLLHSNLNTYLYWFLQKPGQSPQILIYRMSNLASGVPDRFSGSGSGTAFTLKISRVEAEDVGVYYCMQHLEYPFTFGPGTKLEIKR |
